Substitutions are numbered along the chain they refer to. In names and notes the source's numbering stands.
What was measured:
[1] = Fe(III) affinity of Fe(III) BP from competition with Fe(III) chelates / Fe(III) citrate; format: binding; conditions: E57D mutation; assuming logK=10.25 for 1:1 Fe(III) citrate complex; unit inferred
From the text: Family of biosensors. A set of eleven bPBPs with widely varying ligand-binding specificities was selected for engineering biosensor function (Table 2). All were from E. coli except Fe(III) BP, which is from Haemophilus influenzae. Binding specificities and affinities of these proteins for their respective ligands have been characterized (references in Table 2). […] Most of these bPBPs bind at most two or three related ligands with high affinity (micromolar or better). […] Measured ligand dissociation constants in these proteins are typically in the range of 0.1 to 1 μM.
Cysteine point mutations were introduced by the PCR overlap method (Ho et al., Gene 77:51-59, 1989). Mutant proteins typically expressed as well as the wild type protein. […] In the case of Fe(III) BP, all mutations were constructed in the E57D background. […] This permitted straightforward determination of Fe(III) affinity by direct titration with Fe(III) citrate at nanomolar concentrations of Fe(III) BP.

[2] = Fluorimetric titration of Fe(III) BP (E57D) conjugates with Fe(III) citrate; format: binding; conditions: E57D background, read-out: Kd of Fe(III) BP conjugate
Method: Fluorimetry. All measurements were conducted with an SLM Aminco-Bowman series 2 fluorimeter, with sample stirring at 25° C. Fluorescence emission spectra were acquired with excitation and emission slit widths of 4 and 8 nm, respectively. Photomultiplier tube potential was maintained between 400 and 800 volts. Protein concentrations were in the range of 50 to 1000 nM. Fluorophore-specific excitation was at the following approximate wavelengths: tryptophan, 290 nm; acrylodan, 390 nm; fluorescein, 485 nm; pyrene, 340 nm; NBD and NBDE, 490 nm; JPW4039, 485 nm; JPW4042, 470 nm; JPW4045, 470 nm.
Corrections were made for dilution of the protein and for background signal from buffer. Binding curves were fit to binding isotherms using equation 3 or 4, as appropriate.
Analyte affinity measurements. […] The emission wavelength monitored was that of maximum difference in intensity between the ligand-free and bound states. For each conjugate, fluorescence intensiometric observations were fit to a hyperbolic binding isotherm for a two-state model (Marvin et al., Proc. Natl. Acad. Sci. USA 94:4366-4371, 1997): […]

B1: Fe(III) BP E57D: Fe(III) BP with Glu57 substituted by Asp to weaken Fe(III) affinity (protein, UniProt P35755 24-332, looked up, variant E57D)
Iron-utilization periplasmic …: DITVYNGQHKEAATAVAKAFEQETGIKVTLNSGKSEQLAGQLKEEGDKTPADVFYTDQTATFADLSEAGLLAPISEQTIQQTAQKGVPLAPKKDWIALSGRSRVVVYDHTKLSEKDMEKSVLDYATPKWKGKIGYVSTSGAFLEQVVALSKMKGDKVALNWLKGLKENGKLYAKNSVALQAVENGEVPAALINNYYWYNLAKEKGVENLKSRLYFVRHQDPGALVSYSGAAVLKASKNQAEAQKFVDFLASKKGQEALVAARAEYPLRADVVSPFNLEPYEKLEAPVVSATTAQDKEHAIKLIEEAGLK
Question: For B1, which Kd [1] is on record?
Answer: The Kd was roughly 0.03 µM.

B2: Fe(III) BP E203C-acrylodan (conjugate, UniProt P35755 24-332, looked up, variant E203C)
Iron-utilization periplasmic …: B1 Iron-utilization periplasmic … with D57E, E203C
modifications: acrylodan label
Question: With B2 as the molecule, how does the Kd [2] read?
Answer: Its Kd is roughly 138 µM.

Source: patent publication US9625458B2, “Biosensor” (priority 2002, dated 2017)
